Experiments:
Experiment in all cases: ELISA: Fc-His proteins (1 nM) captured on anti-6-His antibody, antibody B 10 µg/mL with human IgG 100 µg/mL, HRP anti-human kappa light chain antibody, OD450 as % of mouse EphA4-Fc-His
[1] = molecular target: T1, mouse EphA8 extracellular region-Fc-His protein (mouse; human, UniProt O09127 27-541)
T1 construct: extracellular domain; not shown: Fc region of human IgG1; histidine tag
T1 sequence (looked up): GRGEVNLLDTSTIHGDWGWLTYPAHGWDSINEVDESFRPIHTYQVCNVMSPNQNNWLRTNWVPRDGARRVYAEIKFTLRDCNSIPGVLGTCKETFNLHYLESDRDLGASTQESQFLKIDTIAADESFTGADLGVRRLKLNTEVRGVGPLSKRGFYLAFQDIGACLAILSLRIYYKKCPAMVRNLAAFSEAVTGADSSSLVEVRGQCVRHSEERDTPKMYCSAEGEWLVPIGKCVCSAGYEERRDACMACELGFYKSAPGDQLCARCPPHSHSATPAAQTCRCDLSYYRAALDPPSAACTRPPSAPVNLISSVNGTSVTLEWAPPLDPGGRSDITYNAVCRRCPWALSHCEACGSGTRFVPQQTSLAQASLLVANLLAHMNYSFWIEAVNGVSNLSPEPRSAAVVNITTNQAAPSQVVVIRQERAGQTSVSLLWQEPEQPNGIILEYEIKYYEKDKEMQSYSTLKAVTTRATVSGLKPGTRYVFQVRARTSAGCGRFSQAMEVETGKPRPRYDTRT
Protocol: (§1) Rabbit anti-6-His antibodies (Bethyl Laboratories) were coated onto the wells of a 96-well plate (Nunc). After incubating at 4° C. overnight, the wells were blocked at room temperature for 1 hour by 1% Block Ace (DS Pharma Biomedical). After washing 3 times with 0.05% Tween 20/PBS (Thermo […]), each Eph receptor of mouse extracellular region-Fc-His protein (final concentration 1 nM) was seeded into each well, and incubated at room temperature for 1 hour. After washing 3 times, human IgG solution (100 μg/mL, Sigma) and antibody B (10 μg/mL) were supplemented to the wells, and incubated at room temperature for 1 hour. Horseradish peroxidase-labeled goat anti-human Kappa Light Chain antibody (IBL) was added, and incubated at room temperature for 1 hour. After washing 3 times, TMBZ (3,3′,5,5′-tetramethylbenzidine, Sigma) solution was added to the wells, and upon confirmation of modest coloring, an equal amount of quenching solution (1 N H₂SO₄, Wako Pure Chemicals) was added to the wells, and absorbance at 450 nm was read by a microplate reader (PerkinElmer).

[2] = molecular target: T2, mouse EphB4 extracellular region-Fc-His protein (mouse; human, UniProt P54761 16-539)
T2 construct: extracellular domain; not shown: Fc region of human IgG1; histidine tag
T2 sequence (looked up): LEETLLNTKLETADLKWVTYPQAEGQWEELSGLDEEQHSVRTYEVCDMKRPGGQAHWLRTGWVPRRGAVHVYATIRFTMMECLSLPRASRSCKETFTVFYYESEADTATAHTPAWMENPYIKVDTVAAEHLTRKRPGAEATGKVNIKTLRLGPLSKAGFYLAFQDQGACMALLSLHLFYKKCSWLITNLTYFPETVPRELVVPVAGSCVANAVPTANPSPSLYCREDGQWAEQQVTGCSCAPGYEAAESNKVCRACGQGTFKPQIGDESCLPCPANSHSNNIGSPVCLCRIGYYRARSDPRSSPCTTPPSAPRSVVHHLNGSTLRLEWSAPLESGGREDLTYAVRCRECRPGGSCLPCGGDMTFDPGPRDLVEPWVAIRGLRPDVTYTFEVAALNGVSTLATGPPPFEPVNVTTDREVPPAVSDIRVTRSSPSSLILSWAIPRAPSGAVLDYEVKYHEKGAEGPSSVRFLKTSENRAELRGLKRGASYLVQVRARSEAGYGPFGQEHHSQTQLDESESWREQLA
Protocol: as §1

[3] = molecular target: T3, mouse EphB6 extracellular region-Fc-His protein (mouse; human, UniProt O08644 33-591)
T3 construct: extracellular domain; not shown: Fc region of human IgG1; histidine tag
T3 sequence (looked up): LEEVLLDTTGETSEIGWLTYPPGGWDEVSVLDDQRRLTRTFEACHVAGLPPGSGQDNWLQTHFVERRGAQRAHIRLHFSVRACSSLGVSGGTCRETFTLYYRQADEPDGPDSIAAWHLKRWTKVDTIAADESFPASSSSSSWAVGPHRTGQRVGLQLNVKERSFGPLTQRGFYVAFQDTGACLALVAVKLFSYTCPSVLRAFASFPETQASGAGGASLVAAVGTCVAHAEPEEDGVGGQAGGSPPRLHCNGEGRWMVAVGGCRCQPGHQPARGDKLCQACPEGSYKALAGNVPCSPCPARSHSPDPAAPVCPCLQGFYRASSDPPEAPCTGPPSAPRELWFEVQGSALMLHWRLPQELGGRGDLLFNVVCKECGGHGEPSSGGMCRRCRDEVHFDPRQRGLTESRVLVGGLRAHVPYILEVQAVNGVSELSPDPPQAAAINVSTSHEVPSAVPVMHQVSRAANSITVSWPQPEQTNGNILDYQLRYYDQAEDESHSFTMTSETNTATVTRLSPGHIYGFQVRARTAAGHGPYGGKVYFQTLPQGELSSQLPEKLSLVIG
Protocol: as §1

Measured: binding result

B1: humanized anti-EphA4 monoclonal antibody (antibody B) (antibody, human IgG2, V domains shown)
VH: QVQLVESGGGVVQPGRSLRLSCAVSGFSLTRFGVHWVRQAPGKGLEWVAVIWRGGSTDYNAAFMSRLTISKDNSKNTVYLQMNSLRAEDTAVYYCAKESLFGVYYDYGYYSMDYWGQGTTVTVSS
VL: DIQMTQSPSSLSASVGDRVTITCRASQEISGYLSWLQQKPGKAPKRLIYAASTLDSGVPSRFSGSRSGTEYTLTISSLQPEDFATYYCLQYASYPLTFGGGTKVEIKR
notes: expressed in Expi293F cells; also called humanized antibody of antibody A; HK2-42 / L1-8
no binding (tested: 10 µg/mL): all assays above

Source: patent US20240010735A1 (EISAI R AND D MANAGEMENT, published 2024)
